The labels stand for the following.
B1: Hammerhead Ribozyme (parent)
chain: ACCGGAUGUGCUUUCCGGUCUGAUGAGUCCGUGAGGACGAAACAG

Variants of B1 are the subject of the data set. Nature of the data set: self-cleavage, relative activity (ratio to wild type); higher = more cleavage; co-transcriptional.
As for C16U A37G, the self-cleavage amounted to 1.02. Under G17C C30U stands 0.545; under G17C C30A, 0.458; under G17C C30G, 0.398. The figure for G17C A40U is 0.3. G17C A40C: the self-cleavage was determined as 0.328. Under G17C A40G stands 0.373; under C16G G33U, 1.09; under C16G G33C, 0.956. C16G G33A: the self-cleavage was 0.994. Under C16U G36C stands 0.375. For the variant C16U G36U, the self-cleavage worked out at 0.507.

With C16U G36A, the self-cleavage is 0.636. Take C16G G39C: the self-cleavage was 0.368. Under C16G G39U stands 0.345; under C16G G39A, 0.254. Take C16U U24G: the self-cleavage was determined as 1.16. Under C16U U24C stands 1.12.

Take C16U U24A: the self-cleavage is 0.747. Under C16A G39C stands 0.337; under C16A G39U, 0.336. The figure for C16A G39A is 0.356; for G17C A26U it is 0.326.

On to G17C A26C, for which the self-cleavage worked out at 0.355. As for G17C A26G, the self-cleavage was determined as 0.353.

Consider C16U G33A, for which the self-cleavage worked out at 1.14. On to C16U G33C, for which the self-cleavage amounted to 1.17. For the variant C16U G33U, the self-cleavage stood at 0.945. Consider C16A U21A, for which the self-cleavage came to 0.668. Under C16A U21G stands 0.316; under C16A U21C, 0.276; under C16G A40U, 0.321. On to C16G A40G, for which the self-cleavage came out at 0.431. For C16G A40C, the self-cleavage stood at 0.372. The figure for C16G G31A is 1.16; for C16G G31C it is 0.823.

Take C16G G31U: the self-cleavage came to 1.05.

On to C16G G36U, for which the self-cleavage stood at 0.314. With C16G G36A, the self-cleavage came to 0.414. Under C16G G36C stands 0.362; under G17A G33A, 0.794; under G17A G33U, 0.751. As for G17A G33C, the self-cleavage came to 0.713. In the case of C16U U19C, the self-cleavage came to 0.572. In the case of C16U U19G, the self-cleavage turned out to be 0.359. Under C16U U19A stands 0.344.

Consider G17A A34U, for which the self-cleavage worked out at 0.613.

Turning to G17A A34G, the self-cleavage amounted to 0.56. For the variant G17A A34C, the self-cleavage stood at 0.562. Under C16G A37C stands 0.737. Turning to C16G A37G, the self-cleavage worked out at 0.533. In the case of C16G A37U, the self-cleavage stood at 0.606. The figure for G17C A37U is 0.359; for G17C A37G it is 0.355; for G17C A37C it is 0.505.

As for G17A G18C, the self-cleavage came out at 0.341. As to G17A G18U, the self-cleavage turned out to be 0.318. Under G17A G18A stands 0.294; under C16A G45U, 0.563. Under C16A G45C stands 0.501. The figure for C16A G45A is 0.574; for G17A C20G it is 0.367. Regarding G17A C20A, the self-cleavage came to 0.327. For the variant G17A C20U, the self-cleavage was 0.442. Under G17C G18A stands 0.361; under G17C G18C, 0.347; under G17C G18U, 0.455. C16A U24A: the self-cleavage was found to be 1.34. Take C16A U24C: the self-cleavage turned out to be 1.33. With C16A U24G, the self-cleavage came out at 0.87.

Regarding C16U C43A, the self-cleavage worked out at 0.352.

In the case of C16U C43G, the self-cleavage is 0.352.

With C16U C43U, the self-cleavage amounted to 0.495. Consider G17C, for which the self-cleavage is 0.575. The figure for G17A is 0.768; for G17C C38G it is 0.452. The figure for G17C C38A is 0.451. Under G17C C38U stands 0.453; under C16G G18U, 0.744. With C16G G18C, the self-cleavage was 0.376.

Regarding C16G G18A, the self-cleavage turned out to be 0.533. The figure for C16U G18C is 0.529; for C16U G18A it is 0.618.

With C16U G18U, the self-cleavage was determined as 0.746. As for G17A G27C, the self-cleavage was found to be 0.399. The figure for G17A G27A is 0.51; for G17A G27U it is 0.495. With C16G A23G, the self-cleavage came out at 0.406.

Take C16G A23U: the self-cleavage stood at 0.295. The figure for C16G A23C is 0.369. C16U A42U: the self-cleavage was 0.273. Under C16U A42C stands 0.363; under C16U A42G, 0.232; under G17A C38U, 0.586. Turning to G17A C38A, the self-cleavage came to 0.488. The figure for G17A C38G is 0.478; for G17A G35A it is 0.623. Consider G17A G35U, for which the self-cleavage worked out at 0.455.

G17A G35C: the self-cleavage worked out at 0.548. Take C16U G35U: the self-cleavage came to 0.735. The figure for C16U G35C is 0.434. Under C16U G35A stands 0.911.

For the variant C16G G25U, the self-cleavage was 0.384. In the case of C16G G25C, the self-cleavage worked out at 0.285. On to C16G G25A, for which the self-cleavage is 0.357. Consider C16U G31A, for which the self-cleavage was determined as 0.731. In the case of C16U G31C, the self-cleavage was 0.844. Under C16U G31U stands 1.2; under C16U U28A, 0.576; under C16U U28C, 0.874. The figure for C16U U28G is 0.798; for C16U G45U it is 0.688.

As for C16U G45C, the self-cleavage was found to be 0.921. Turning to C16U G45A, the self-cleavage was 0.89. The figure for C16U A23C is 0.474; for C16U A23G it is 0.423; for C16U A23U it is 0.358. Under C16G C29A stands 0.39. Regarding C16G C29U, the self-cleavage stood at 0.646. The figure for C16G C29G is 0.496; for G17A G25C it is 0.321; for G17A G25U it is 0.372. Regarding G17A G25A, the self-cleavage is 0.353.

For G17A G39U, the self-cleavage came to 0.316.

Take G17A G39C: the self-cleavage was 0.333.

As to G17A G39A, the self-cleavage was 0.326. Regarding G17A U32A, the self-cleavage stood at 0.62.

Consider G17A U32G, for which the self-cleavage was 0.613. For the variant G17A U32C, the self-cleavage is 0.812. C16U C30A: the self-cleavage amounted to 0.831.

In the case of C16U C30G, the self-cleavage was determined as 0.719.

For the variant C16U C30U, the self-cleavage stood at 1.02. Under C16G C43G stands 0.265; under C16G C43A, 0.337; under C16G C43U, 0.285.

For the variant C16U U21G, the self-cleavage amounted to 0.588. Under C16U U21C stands 0.473. Under C16U U21A stands 0.698; under C16A U19C, 0.39; under C16A U19A, 0.34. For C16A U19G, the self-cleavage came to 0.295.

In the case of C16U, the self-cleavage worked out at 0.983. Under C16G stands 1.02; under G17A U28C, 0.331.

Regarding G17A U28G, the self-cleavage was 0.567. For the variant G17A U28A, the self-cleavage is 0.42. The figure for G17A C29G is 0.462. As for G17A C29A, the self-cleavage is 0.441. Under G17A C29U stands 0.68; under C16A U28C, 0.722. On to C16A U28G, for which the self-cleavage was 0.638. Take C16A U28A: the self-cleavage stood at 0.434.

Turning to C16G G27A, the self-cleavage is 0.42.

In the case of C16G G27C, the self-cleavage amounted to 0.35. Under C16G G27U stands 0.304; under G17A U21G, 0.39; under G17A U21C, 0.294. Consider G17A U21A, for which the self-cleavage worked out at 0.351. Under C16U A44U stands 0.845.

As for C16U A44G, the self-cleavage is 1.34. C16U A44C: the self-cleavage turned out to be 0.586. With C16G A34U, the self-cleavage came to 0.709. Under C16G A34C stands 0.647. The figure for C16G A34G is 0.655; for C16U G17U it is 0.714; for C16U G17C it is 0.551. C16U G17A: the self-cleavage is 0.556.

These data come from the RNAGym collection of RNA variant scans (doi:10.7554/elife.80360).
